Assay results published in patent US20060094663A1 (VALORISATION RECHERCHE SOCIETE EN COMMANDITE, published 2006).
Values belong to the binder of their own block, whether it stands above or below them. Where no end group is shown, it is not given here. [ ]: non-standard residue; d: D form. dOrn = NCCC[C@@H](N)C(=O)O

Columns and labels:
Test in all cases: cell-based or functional assay
[1] = target: T1, IL-1R/IL-1RacP receptor on human cells (human, UniProt P14778 18-569; Q9NPH3 21-570)
T1 sequence (looked up) 1: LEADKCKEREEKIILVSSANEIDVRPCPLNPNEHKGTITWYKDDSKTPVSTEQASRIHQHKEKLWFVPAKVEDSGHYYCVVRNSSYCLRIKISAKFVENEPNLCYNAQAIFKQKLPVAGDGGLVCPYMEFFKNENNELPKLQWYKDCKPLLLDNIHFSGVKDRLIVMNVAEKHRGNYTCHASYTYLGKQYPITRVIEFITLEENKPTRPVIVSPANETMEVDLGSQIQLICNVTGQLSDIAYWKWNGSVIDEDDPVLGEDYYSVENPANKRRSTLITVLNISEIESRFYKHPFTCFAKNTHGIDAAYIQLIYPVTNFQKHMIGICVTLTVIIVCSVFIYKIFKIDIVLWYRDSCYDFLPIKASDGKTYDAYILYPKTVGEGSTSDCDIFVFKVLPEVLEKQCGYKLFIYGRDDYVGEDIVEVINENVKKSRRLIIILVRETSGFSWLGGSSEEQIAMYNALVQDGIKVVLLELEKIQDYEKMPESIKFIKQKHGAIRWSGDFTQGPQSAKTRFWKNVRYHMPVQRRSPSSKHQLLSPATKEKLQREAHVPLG
T1 sequence (looked up) 2: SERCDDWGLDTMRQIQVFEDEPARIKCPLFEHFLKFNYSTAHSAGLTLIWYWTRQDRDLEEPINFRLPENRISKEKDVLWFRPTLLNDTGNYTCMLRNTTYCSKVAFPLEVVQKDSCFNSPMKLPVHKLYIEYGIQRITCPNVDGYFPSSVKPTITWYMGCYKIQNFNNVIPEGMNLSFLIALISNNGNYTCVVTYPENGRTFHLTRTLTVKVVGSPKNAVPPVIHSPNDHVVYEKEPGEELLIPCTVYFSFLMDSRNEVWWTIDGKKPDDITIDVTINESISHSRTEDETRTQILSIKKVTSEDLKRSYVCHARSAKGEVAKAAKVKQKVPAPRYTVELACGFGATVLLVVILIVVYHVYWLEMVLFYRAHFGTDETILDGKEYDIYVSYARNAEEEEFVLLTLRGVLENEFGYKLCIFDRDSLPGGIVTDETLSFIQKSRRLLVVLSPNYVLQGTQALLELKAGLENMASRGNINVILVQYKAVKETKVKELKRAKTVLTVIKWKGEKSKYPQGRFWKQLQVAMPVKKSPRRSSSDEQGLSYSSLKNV

[2] = target: IL-1R/IL-1RacP receptor (cells or tissue whose species is not stated)
[3] = target: T1, IL-1R/IL-1RacP receptor on human cells; remark: listed apart in the source
[4] = target: T2, IL-1R/IL-1RacP receptor on porcine cells and vessels (porcine (piglet), UniProt A0A5G2QSI4 18-572)
T2 sequence (A0A5G2QSI4 entry or part of it): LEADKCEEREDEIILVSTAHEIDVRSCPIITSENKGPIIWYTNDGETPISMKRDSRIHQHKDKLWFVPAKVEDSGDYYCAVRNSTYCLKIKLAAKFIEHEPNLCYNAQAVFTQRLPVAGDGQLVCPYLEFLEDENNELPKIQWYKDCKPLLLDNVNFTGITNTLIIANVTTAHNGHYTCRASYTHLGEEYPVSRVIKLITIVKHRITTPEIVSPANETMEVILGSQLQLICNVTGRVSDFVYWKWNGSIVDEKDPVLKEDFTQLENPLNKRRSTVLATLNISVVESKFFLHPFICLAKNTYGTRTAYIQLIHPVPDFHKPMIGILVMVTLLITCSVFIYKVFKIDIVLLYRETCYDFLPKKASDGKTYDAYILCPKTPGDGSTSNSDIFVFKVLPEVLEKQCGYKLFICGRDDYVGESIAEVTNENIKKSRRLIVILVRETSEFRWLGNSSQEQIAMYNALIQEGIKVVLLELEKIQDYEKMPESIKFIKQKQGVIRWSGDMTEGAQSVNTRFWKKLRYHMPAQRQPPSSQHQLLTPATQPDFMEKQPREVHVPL

[5] = target: T1, IL-1R/IL-1RacP receptor on human cells; remark: listed apart in the source
[6] = target: T2, IL-1R/IL-1RacP receptor on porcine …; remark: listed apart in the source

Emax (%), IL-1β-induced PGE2 synthesis in endothelial cells (porcine) [4]: 80% | IC50, IL-1β-induced PGE2 synthesis in endothelial cells (porcine) [4]: 0.0074 nM
Binder: [dR][dY][dT][dP][dE][dL] [API-101.113]

Emax (%), IL-1β-induced TF-1 proliferation [5]: < 30%
Binder: [dR][dF][dV][dP][dE][dL][dA] [API-101.127]

Emax (%), IL-1β-induced TF-1 proliferation [5]: 50% | IC50, IL-1β-induced TF-1 proliferation [5]: 400 nM
Binder: [dR][dY][dT][dP][dE][dV] [API-101.129]

Emax (%), IL-1β-induced TF-1 proliferation [5]: < 10%
Binder: [dK][dY][dT][dP][dE][dL] [API-101.133]

IC50, IL-1-induced PGE2 synthesis, human WI-38 cells [3]: 0.05 pM
Binder: [dR][dY][dT][dV][dQ][dL][dA] [API-101.103]

percent of IL-1β-induced proliferation of WI-38 human lung fibroblasts abolished [3]: 100%
Binder: [dY][dT][dV][dE][dL][dA] [API-101.11]

Emax (%), IL-1β-induced PGE2 synthesis in endothelial cells (porcine) [4]: 45% | IC50, IL-1β-induced PGE2 synthesis in endothelial cells (porcine) [4]: 0.013 nM | Emax (%), IL-1β-induced proliferation in TF-1 cells (human) [1]: 75% | IC50, IL-1β-induced proliferation in TF-1 cells (human) [1]: 0.5 nM
Binder: [dR][dW][dT][dP][dE][dL][dA] [API-101.116]

Emax (%), IL-1β-induced TF-1 proliferation [5]: 100% | IC50, IL-1β-induced TF-1 proliferation [5]: 3 nM
Binder: [dR][dW][dT][dP][dE][dL] [API-101.128]

More lines, now with the values behind:

Binder: [dOrn][dY][dT][dP][dE][dL][dA] [API-101.115]
Emax (%), IL-1β-induced proliferation in TF-1 cells (human) [1]: 100% | IC50, IL-1β-induced proliferation in TF-1 cells (human) [1]: ~0.001 nM

Binder: [dR][dY][dT][dP][dE][dL][dA] [API-101.107]
IC50 (FIG. 15; cell type not given) [2]: 0.0012 nM | IC50, IL-1-induced PGE2 synthesis, human WI-38 cells [3]: 0.1 pM

Binder: [dR][dY][dT][dP][dD][dL][dA] [API-101.117]
Emax (%), IL-1β-induced PGE2 synthesis in endothelial cells (porcine) [4]: 100% | IC50, IL-1β-induced PGE2 synthesis in endothelial cells (porcine) [4]: 0.01 nM

Binder: [dA][dP][dR][dY][dT][dV][dE][dL][dA] [API-101]
IC50, IL-1-induced PGE2 synthesis, endothelial cells [6]: 220 nM | IC50, IL-1-induced PGE2 synthesis, microvascular endothelial cells [6]: 1000 nM | IC50, IL-1β-induced vasodilation of piglet pial vessels (ex vivo) [6]: 182 nM | IC50, IL-1-induced PGE2 synthesis, WI-38 cells [3]: 790 nM | IC50, effect of IL-1β (10 ng/ml) on proliferation of A549 carcinoma cells, 3H-thymidine [3]: 1000 nM | percent of IL-1β-induced proliferation of WI-38 human lung fibroblasts abolished [3]: 65%

Binder: [dK][dY][dT][dP][dE][dL][dA] [API-101.114]
Emax (%), IL-1β-induced PGE2 synthesis in endothelial cells (porcine) [4]: 50% | IC50, IL-1β-induced PGE2 synthesis in endothelial cells (porcine) [4]: 0.002 nM

Binder: [dR][dY][dT][dV][dE][dL][dA] [API-101.10]
IC50, IL-1-induced PGE2 synthesis, endothelial cells [6]: 1.2 nM | IC50, IL-1-induced vasodilation (ex vivo vasomotricity, protocol of Example 1) [6]: 10.8 nM | fold potency against API-101, IL-1-induced vasodilation (ex vivo) [6]: 100 fold | IC50, IL-1-induced PGE2 synthesis, WI-38 cells [3]: 0.2 nM | percent of IL-1β-induced proliferation of WI-38 human lung fibroblasts abolished [3]: 100%

Binder: [dOrn][dY][dT][dP][dE][dL] [API-101.126]
Emax (%), IL-1β-induced TF-1 proliferation [5]: 0%
